Measurements as given in IntAct's records for PubMed 20477991.

B1: Phospholipid-transporting ATPase NEO1 (Saccharomyces cerevisiae), P40527 (parent)
chain: MPNPPSFKSHKQNLFNSNNNQHANSVDSFDLHLDDSFDAALDSLQINNNPEPLSKHNTVGDRESFEMRTVDDLDNFSNHSSDSHRKSSNTDTHPLMYDNRLSQDDNFKFTNIASSPPSSSNNIFSKALSYLKVSNTKNWSKFGSPIELSDQHIEREIHPDTTPVYDRNRYVSNELSNAKYNAVTFVPTLLYEQFKFFYNLYFLVVALSQAVPALRIGYLSSYIVPLAFVLTVTMAKEAIDDIQRRRRDRESNNELYHVITRNRSIPSKDLKVGDLIKVHKGDRIPADLVLLQSSEPSGESFIKTDQLDGETDWKLRVACPLTQNLSENDLINRISITASAPEKSIHKFLGKVTYKDSTSNPLSVDNTLWANTVLASSGFCIACVVYTGRDTRQAMNTTTAKVKTGLLELEINSISKILCACVFALSILLVAFAGFHNDDWYIDILRYLILFSTIIPVSLRVNLDLAKSVYAHQIEHDKTIPETIVRTSTIPEDLGRIEYLLSDKTGTLTQNDMQLKKIHLGTVSYTSETLDIVSDYVQSLVSSKNDSLNNSKVALSTTRKDMSFRVRDMILTLAICHNVTPTFEDDELTYQAASPDEIAIVKFTESVGLSLFKRDRHSISLLHEHSGKTLNYEILQVFPFNSDSKRMGIIVRDEQLDEYWFMQKGADTVMSKIVESNDWLEEETGNMAREGLRTLVIGRKKLNKKIYEQFQKEYNDASLSMLNRDQQMSQVITKYLEHDLELLGLTGVEDKLQKDVKSSIELLRNAGIKIWMLTGDKVETARCVSISAKLISRGQYVHTITKVTRPEGAFNQLEYLKINRNACLLIDGESLGMFLKHYEQEFFDVVVHLPTVIACRCTPQQKADVALVIRKMTGKRVCCIGDGGNDVSMIQCADVGVGIVGKEGKQASLAADFSITQFCHLTELLLWHGRNSYKRSAKLAQFVMHRGLIIAICQAVYSICSLFEPIALYQGWLMVGYATCYTMAPVFSLTLDHDIEESLTKIYPELYKELTEGKSLSYKTFFVWVLLSLFQGSVIQLFSQAFTSLLDTDFTRMVAISFTALVVNELIMVALEIYTWNKTMLVTEIATLLFYIVSVPFLGDYFDLGYMTTVNYYAGLLVILLISIFPVWTAKAIYRRLHPPSYAKVQEFATP

Variants of: B1
Details: with dop1_yeast DOP1, Q03921
Chain of dop1_yeast DOP1, Q03921 (Q03921 whole entry): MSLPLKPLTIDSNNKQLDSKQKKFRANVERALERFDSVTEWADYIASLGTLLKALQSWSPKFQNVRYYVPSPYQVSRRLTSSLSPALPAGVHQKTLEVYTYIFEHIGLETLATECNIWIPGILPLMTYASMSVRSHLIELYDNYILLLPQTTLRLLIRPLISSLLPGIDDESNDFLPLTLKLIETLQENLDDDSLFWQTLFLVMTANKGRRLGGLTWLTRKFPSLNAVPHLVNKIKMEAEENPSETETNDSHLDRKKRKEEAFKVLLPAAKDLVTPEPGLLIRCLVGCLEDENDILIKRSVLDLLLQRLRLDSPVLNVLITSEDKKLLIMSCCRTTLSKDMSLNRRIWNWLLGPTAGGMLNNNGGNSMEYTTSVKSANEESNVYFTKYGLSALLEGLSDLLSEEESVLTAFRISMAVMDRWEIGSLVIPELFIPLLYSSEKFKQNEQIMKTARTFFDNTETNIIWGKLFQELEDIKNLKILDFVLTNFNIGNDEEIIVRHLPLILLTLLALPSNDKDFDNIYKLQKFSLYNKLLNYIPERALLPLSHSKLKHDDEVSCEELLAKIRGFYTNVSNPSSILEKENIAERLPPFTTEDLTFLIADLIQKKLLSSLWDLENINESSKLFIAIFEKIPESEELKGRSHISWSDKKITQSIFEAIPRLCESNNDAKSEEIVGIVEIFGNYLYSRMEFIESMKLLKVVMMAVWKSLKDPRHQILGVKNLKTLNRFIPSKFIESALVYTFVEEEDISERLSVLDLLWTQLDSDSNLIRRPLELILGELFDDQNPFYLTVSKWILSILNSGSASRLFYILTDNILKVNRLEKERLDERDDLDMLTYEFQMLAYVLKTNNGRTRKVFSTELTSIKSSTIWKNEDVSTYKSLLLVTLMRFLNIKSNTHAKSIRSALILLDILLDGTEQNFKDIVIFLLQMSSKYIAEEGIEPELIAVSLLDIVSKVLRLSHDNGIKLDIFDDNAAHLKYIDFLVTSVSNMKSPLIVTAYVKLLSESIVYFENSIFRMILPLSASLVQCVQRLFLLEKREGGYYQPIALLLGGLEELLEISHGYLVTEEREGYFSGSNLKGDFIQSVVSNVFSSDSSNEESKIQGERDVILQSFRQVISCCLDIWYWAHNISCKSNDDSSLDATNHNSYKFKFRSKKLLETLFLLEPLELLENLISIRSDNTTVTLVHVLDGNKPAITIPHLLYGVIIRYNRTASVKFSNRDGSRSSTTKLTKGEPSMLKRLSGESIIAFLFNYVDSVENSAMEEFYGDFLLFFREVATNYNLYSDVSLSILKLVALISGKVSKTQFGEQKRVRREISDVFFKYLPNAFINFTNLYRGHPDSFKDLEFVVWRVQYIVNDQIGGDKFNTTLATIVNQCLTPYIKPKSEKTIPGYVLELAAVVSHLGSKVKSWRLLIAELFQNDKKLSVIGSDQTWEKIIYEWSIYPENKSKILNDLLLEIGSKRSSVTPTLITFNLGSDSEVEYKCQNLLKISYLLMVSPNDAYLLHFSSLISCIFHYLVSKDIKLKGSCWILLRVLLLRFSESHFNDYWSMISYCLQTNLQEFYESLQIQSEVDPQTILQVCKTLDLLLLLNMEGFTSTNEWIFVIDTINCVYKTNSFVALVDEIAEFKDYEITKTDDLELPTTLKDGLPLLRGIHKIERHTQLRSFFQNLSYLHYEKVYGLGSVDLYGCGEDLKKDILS

| effect of a mutation on the interaction | Variant |
| --- | --- |
| decreasing interaction strength | F301S;D305G;V373A;S539P;L540P;N631S;Q655R;V748A |
| with no effect | I284T;I449M;E605G;L680P;Y714H |
